The assay deals with β-secretase (Homo sapiens, UniProt P56817). The assay is described as follows: β-secretase cleavage of peptide substrates and peptide libraries followed by LC/MS. Conditions: for Relative rates of hydrolysis: hydrolysis by β-secretase, Swedish mutant EVNLDAEF (SEQ ID NO: 257) = 1, each peptide 1 μM, pH 4.5, 37° C.; for rate of hydrolysis by β-secretase, times faster than the Swedish mutant sequence (SEQ ID NO: 257): relative to Swedish mutant APP sequence, peptides incubated simultaneously with β-secretase; for rate of cleavage (depletion of full length substrate) of P1′ peptide library components: P1′ peptide library treated with β-secretase, FIG. 2; for formation of C-terminal cleavage products from the P1′ peptide library: FIG. 3. Type of assay: biochemical. As to the method:
Following synthesis and purification, each of the eight peptide libraries was incubated with the enzyme β-secretase and the relative rates of cleavage of each individual peptide library component was followed with liquid chromatography/mass spectrometry (LC/MS) with analysis of both the depletion of the full length peptide substrate, as well as the formation of peptide cleavage fragments. The enzyme β-secretase was incubated at concentrations ranging from 5 to 50 nM at pH 4.5 with each of the peptide libraries and/or mixtures of synthetic peptide substrates.
The mixtures of substrates and enzyme were incubated in an Agillent Technology 1100 series liquid chromatograph with a temperature controlled autosampler. The temperature for all β-secretase enzymatic assays was held constant at 37° C. A 100 μl aliquot of each reaction mixture was injected onto a 1×50 mm C18 reverse phase 1c column (Metachem Technologies Inc., Torrance, Calif.) every two hours to monitor reaction progress. After injection, a highly optimized solvent gradient was delivered to the column to maximize resolving power for each of the substrate library components. […] After the LC/MS run, the data were processed by selected-ion chromatograms for each of the peptide substrate library components by extracting 0.5 Da mass windows surrounding the calculated mass values of each of the peptides.

β-secretase, sequence (P56817 46-501): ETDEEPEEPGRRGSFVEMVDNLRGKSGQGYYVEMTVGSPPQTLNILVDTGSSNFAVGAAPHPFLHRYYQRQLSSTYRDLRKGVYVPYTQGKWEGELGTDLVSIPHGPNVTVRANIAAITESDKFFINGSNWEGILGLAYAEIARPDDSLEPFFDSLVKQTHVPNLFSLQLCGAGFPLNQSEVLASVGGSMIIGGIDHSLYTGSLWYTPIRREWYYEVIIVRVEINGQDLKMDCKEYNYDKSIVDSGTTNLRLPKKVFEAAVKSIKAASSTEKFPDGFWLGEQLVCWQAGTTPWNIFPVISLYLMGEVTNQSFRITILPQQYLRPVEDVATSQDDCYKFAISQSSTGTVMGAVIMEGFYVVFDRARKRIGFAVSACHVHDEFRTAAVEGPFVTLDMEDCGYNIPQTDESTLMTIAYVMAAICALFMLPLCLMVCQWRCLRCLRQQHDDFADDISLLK

Turning to EVNFAAEF (Beta-Secretase Cleavage Site), the “Relative rates of hydrolysis” value is reported as 17.
As for EVNFAVEF (Beta-Secretase Cleavage Site), the “Relative rates of hydrolysis” value was 30 and the “rate of hydrolysis by β-secretase, times faster than the Swedish mutant sequence (SEQ ID NO: 257)” value is on record as “roughly 30 times”.
For the substance EVNFEAEF (Beta-Secretase Cleavage Site), the “Relative rates of hydrolysis” value is 17.
In the case of EVNFEVEF (Beta-Secretase Cleavage Site), the “Relative rates of hydrolysis” value is reported as 60 and the “rate of hydrolysis by β-secretase, times faster than the Swedish mutant sequence (SEQ ID NO: 257)” value is reported as 60 times.
For “EVNLDAEF (Beta-Secretase Cleavage Site) [8-mer of Swedish mutant APP around the β-secretase cleavage site, reference compound]”, the “rate of cleavage (depletion of full length substrate) of P1′ peptide library components” value (from here on “rate of cleavage”) is given as “intermediate”, the “formation of C-terminal cleavage products from the P1′ peptide library” value is recorded as “less conducive to β-secretase hydrolysis than either Glu or Ala” and the “Relative rates of hydrolysis” value worked out at 1.
With “P1′=Glu: P1′ peptide library component: Swedish mutant APP 8-mer with Glu at P1′ (EVNLEAEF)”, the “rate of cleavage” value was “most rapidly hydrolyzed”; the “formation of C-terminal cleavage products from the P1′ peptide library” value is “more rapid and comparable rates of formation”.
In the case of “P1′=Gly: P1′ peptide library component: Swedish mutant APP 8-mer with Gly at P1′ (EVNLGAEF)”, the “rate of cleavage” value was “not cleaved”.
Still for that read-out and setting: the result for “P1′=Pro: P1′ peptide library component: Swedish mutant APP 8-mer with Pro at P1′ (EVNLPAEF)” reads “not cleaved”.

For the origin of these results see patent US7132401B2, “Beta-secretase substrates and uses thereof” (Merck & Co., Inc., priority 2002, dated 2006).
